Results: US20170355781A1 (CCAM BIOTHERAPEUTICS, published 2017)

B1: chimeric monoclonal antibody CM10 (antibody, human IgG1, kappa, V domains shown)
VH: QVQLQQSGAELVRPGTSVKVSCKASGYAFTNNLIEWVKQRPGQGLEWIGVINPGSGDTNYNEKFKGKATLTADKSSNTAYMQLSSLTSDDSAVYFCARGDYYGGFAVDYWGQGTSVTVSS
VL: DIQMTQTTSSLSASLGDRVTISCRTSQDIGNYLNWYQQKPDGTVKLLIYYTSRLHSGVPSRFSGSGSGTDYSLTISNLEQEDIATYFCQQGKSLPRTFGGGTKLEIKR
notes: made in CHO cells; PE-conjugated CM10 was used for the QuantiBRITE count; also called CM10.S91; anti CEACAM1 mAb, CM10

Tests used:
[1] = biological target: T1, human CEACAM1 on cells (human, UniProt P13688 35-526)
T1 construct: whole, on cells; Used for endogenous CEACAM1 (526mel, Malme 3M, SKmel5, G361, NK 92MI, primary cells) and for 721.221 transfectants; also called hCEACAM1
T1 sequence (looked up): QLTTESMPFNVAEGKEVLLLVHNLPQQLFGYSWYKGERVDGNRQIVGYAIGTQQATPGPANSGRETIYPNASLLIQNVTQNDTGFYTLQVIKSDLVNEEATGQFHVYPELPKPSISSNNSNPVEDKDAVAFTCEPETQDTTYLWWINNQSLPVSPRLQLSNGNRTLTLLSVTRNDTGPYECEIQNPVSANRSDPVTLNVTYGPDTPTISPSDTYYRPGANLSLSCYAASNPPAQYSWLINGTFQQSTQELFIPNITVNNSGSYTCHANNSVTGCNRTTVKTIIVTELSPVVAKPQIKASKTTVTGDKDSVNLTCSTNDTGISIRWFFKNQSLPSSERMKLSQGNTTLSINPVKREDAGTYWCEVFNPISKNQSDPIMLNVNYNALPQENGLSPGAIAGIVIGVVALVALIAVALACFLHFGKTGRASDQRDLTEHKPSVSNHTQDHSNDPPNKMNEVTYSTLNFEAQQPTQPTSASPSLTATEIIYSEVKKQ

[2] = biological target: chimeric molecule composed of the extracellular portion of human CEACAM1 fused to mouse z-chain, on BW cells (human; mouse, UniProt P13688 35-428; P24161 31-164); assay: cell-based or functional assay
[3] = biological target: T2, recombinant purified human CEACAM1 (human, UniProt P13688 35-428, limits assumed); assay: indirect ELISA on plate-bound purified human CEACAM1, double dilutions of CM10
T2 construct: also called purified hCEACAM1; Recombinant CEACAM1
T2 sequence (looked up): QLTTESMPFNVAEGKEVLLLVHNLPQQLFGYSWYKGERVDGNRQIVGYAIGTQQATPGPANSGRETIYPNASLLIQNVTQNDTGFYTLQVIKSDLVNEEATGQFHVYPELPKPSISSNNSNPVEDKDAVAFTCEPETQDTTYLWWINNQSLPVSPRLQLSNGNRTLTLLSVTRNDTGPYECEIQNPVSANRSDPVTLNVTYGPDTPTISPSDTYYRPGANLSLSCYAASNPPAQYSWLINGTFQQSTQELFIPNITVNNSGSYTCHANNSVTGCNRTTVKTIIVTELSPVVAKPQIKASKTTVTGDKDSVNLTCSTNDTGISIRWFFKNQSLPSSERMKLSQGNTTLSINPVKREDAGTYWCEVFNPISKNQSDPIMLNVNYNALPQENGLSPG
Method: The binding specificity of CM10 to human CEACAM1 was tested in ELISA assay using purified human CEACAM1. Indirect ELISA using 23 double dilutions of CM10 were used to generate specific binding curve. The results shown in FIG. 2 represent average O.D. from triplicate±SE. Similar results were obtain from other ten independent experiments.

[4] = biological target: T2, recombinant purified human CEACAM1; assay: SPR, Biacore 3000, antibody immobilized on CM5 chip, recombinant CEACAM1 flowed; three independent experiments
Method: (§1) Each antibody was immobilized onto a single channel of a CM5 sensor chip of Biacore3000 instrument by NHS-EDC coupling chemistry.
(§2) Recombinant CEACAM1 was flowed at 50 μl/min over the chip in various concentrations (0.19, 0.39, 0.78, 1.56, 3.12, 6.25, 12.5 and 25 nM). The running buffer was PBS-ET (10 mM p-buffer pH7.4, 150 mM NaCl, 3.4 mM EDTA and 0.005% tween 20).

[5] = biological target: T2, recombinant purified human CEACAM1; assay: SPR, Biacore 3000, antibody immobilized on CM5 chip, recombinant CEACAM1 flowed; average of three independent experiments
Method: as §1, §2

[6] = biological target: T3, CEACAM4 transiently expressed on HEK 293T cells (human, UniProt O75871 36-244); assay: flow cytometry, biotinylated CM10 plus Strep-Avidin APC on HEK 293T cells transiently expressing CEACAM-4
T3 construct: whole, on cells
T3 sequence (looked up): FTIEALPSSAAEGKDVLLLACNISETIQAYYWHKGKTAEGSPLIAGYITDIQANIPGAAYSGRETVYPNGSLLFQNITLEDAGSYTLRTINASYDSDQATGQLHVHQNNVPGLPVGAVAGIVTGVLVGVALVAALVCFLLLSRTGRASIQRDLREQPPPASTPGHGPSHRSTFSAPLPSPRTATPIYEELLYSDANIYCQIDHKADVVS
Method: A standard FACS protocol was used with CM10 conjugated to a Biotin molecule and Strep-Avidin APC as secondary agent. […] Empty histograms represent mAb staining while red histograms represent background staining. At least 10000 cells were used to analyze CM10 binding in each histogram. FAB was calculated by dividing the MFI of the stained cells in the MFI of the background staining.

[7] = biological target: T1, human CEACAM1 on cells; assay: blocking assay by FACS: SKMEL5 cells (CEACAM1 positive) pre-incubated with CM10 and washed, then soluble biotinylated CEACAM5 detected with streptavidin-APC
Method: CEACAM1 positive cell line (SKMel 5) was incubated with an isotype control or CM10 in various concentrations, unbound CM10 was washed twice, followed by incubation with or without soluble biotinylated CEACAM5. The binding of the biotinylated CEACAM5 to the cells was detected by a secondary strepavidin-APC and FACS analysis. The results represent the mean of duplicate wells±SE. Similar results were obtained in two other independent experiments.

Row | Molecule | mouse IL-2 secretion (ELISA), BW/221+ co-culture, no CM10 [1] | IC50 (read off the curve) of the block of mouse IL-2 secretion in the BW/221+ co-culture [2] | EC50 (read off the curve) [3] | Kd [4] | Kd [5] | binding result [6] | IC50 (read off the curve) [7]
1 | chimeric molecule composed of the extracellular portion of human CEACAM1 fused to mouse z-chain, on BW cells (from UniProt P13688 35-428; P24161 31-164) (receptor) | 289 pg/mL |  |  |  |  |  | 
2 | B1 |  | ~10 ng/mL | ~10 ng/mL | 4.07 to 5.05 nM | 4.56 nM | no binding (tested: 1 µg/ml) | ~100 ng/mL
